Data published in patent EP2325637A1.

Biological target: GFP-tagged Rab11a (UniProt P62491)
Assay: cell-based or functional assay

UniProt P62491, sequence (P62491 whole entry): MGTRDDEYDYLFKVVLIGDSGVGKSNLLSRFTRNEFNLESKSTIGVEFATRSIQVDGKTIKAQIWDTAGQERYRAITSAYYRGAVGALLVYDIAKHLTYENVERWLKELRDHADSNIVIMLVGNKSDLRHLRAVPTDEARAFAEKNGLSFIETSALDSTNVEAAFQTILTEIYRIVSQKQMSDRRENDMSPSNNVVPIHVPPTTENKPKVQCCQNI

colocalisation (confocal microscopy, HeLa cells): 100%
Substance: mCherry-MyoVa(1100-1853) fusion protein (from UniProt Q9Y4I1 1100-1828)
